Source: paper PMC6033261 (Methods in molecular biology (Clifton, N.J.), 2015)

Biological target: His-Rab7 (UniProt P51149 1-207)
Assay: bead-based flow cytometry

Sequence of His-Rab7 (P51149 whole entry): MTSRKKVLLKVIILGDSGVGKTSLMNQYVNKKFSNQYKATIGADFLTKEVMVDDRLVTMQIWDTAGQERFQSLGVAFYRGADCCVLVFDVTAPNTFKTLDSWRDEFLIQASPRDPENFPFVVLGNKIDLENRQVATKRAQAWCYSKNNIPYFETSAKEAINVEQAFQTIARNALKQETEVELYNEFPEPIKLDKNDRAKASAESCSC

B1: GST-RILP (Rab binding domain of RILP only) (domain or fragment, UniProt Q96NA2 240-316, looked up)
chain: QCRFSREEFEQILQERNELKAKVFLLKEELAYFQRELLTDHRVPGLLLEAMKVAVRKQRKKIKAKMLGTPEEAESSE
  Kd: 1870 ± 250 nM
